Columns and labels:
[1] = biological target: monkey DLL3 on CHO-K1-cyno DLL3 cells (cynomolgus monkey); assay: FACS, CHO-K1-cyno DLL3 cells, 4 nM antibody
[2] = biological target: monkey DLL3 on CHO-K1-cyno DLL3 cells (cynomolgus monkey); assay: FACS, CHO-K1-cyno DLL3 cells, 0.00128 nM antibody
[3] = biological target: monkey DLL3 on CHO-K1-cyno DLL3 cells (cynomolgus monkey); assay: FACS, CHO-K1-cyno DLL3 cells, 0.16 nM antibody
[4] = biological target: mouse DLL3 on CHO-K1-mDLL3 cells (mouse) (UniProt O88516); assay: FACS, CHO-K1-mDLL3 cells, 0.0064 nM antibody
Chain of mouse DLL3 on CHO-K1-mDLL3 cells (mouse) (O88516 other isoform, or with tags, fused parts or gaps limits assumed): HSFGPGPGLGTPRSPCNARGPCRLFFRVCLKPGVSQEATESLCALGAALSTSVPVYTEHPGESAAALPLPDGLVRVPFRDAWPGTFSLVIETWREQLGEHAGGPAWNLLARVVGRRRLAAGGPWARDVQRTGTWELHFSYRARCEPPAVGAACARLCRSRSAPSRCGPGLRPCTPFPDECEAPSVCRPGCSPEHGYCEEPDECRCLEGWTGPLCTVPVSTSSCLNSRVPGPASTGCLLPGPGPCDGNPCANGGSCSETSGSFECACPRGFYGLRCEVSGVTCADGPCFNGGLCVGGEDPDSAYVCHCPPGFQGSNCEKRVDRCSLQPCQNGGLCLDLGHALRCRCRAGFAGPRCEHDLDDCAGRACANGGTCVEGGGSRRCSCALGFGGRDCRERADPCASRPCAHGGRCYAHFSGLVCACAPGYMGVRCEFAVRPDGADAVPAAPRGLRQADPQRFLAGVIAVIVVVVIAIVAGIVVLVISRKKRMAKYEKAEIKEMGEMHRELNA

[5] = biological target: human delta-like ligand 3 (DLL3) on SHP77 cells (human) (UniProt Q9NYJ7); assay: FACS on SHP77 cells
Chain of human delta-like ligand 3 (DLL3) on SHP77 cells (human) (Q9NYJ7 27-618, stated change not applied): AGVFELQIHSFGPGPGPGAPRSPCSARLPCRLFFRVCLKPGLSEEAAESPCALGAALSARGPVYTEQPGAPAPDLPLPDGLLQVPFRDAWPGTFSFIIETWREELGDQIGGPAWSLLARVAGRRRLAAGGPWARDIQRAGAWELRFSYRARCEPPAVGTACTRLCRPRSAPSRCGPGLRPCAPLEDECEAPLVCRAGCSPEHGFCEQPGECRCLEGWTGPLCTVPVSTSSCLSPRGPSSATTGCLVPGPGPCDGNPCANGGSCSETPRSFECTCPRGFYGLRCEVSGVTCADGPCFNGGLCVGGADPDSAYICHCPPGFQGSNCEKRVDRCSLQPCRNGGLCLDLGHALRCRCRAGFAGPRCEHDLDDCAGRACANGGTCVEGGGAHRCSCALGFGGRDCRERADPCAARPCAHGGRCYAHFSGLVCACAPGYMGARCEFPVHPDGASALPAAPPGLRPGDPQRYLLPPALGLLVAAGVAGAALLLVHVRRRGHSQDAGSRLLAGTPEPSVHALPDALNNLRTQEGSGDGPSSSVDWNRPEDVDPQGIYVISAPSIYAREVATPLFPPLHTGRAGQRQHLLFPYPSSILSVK

[6] = biological target: DLL3 endogenously expressed on NCI-H82 cells (UniProt Q9NYJ7); assay: FACS on NCI-H82 cells; antibody 0.8 nM
Chain of DLL3 endogenously expressed on NCI-H82 cells (Q9NYJ7 27-618): as the sequence (Q9NYJ7 27-618, stated change not applied) above

[7] = biological target: mouse DLL3 on CHO-K1-mDLL3 cells (mouse) (UniProt O88516); assay: FACS, CHO-K1-mDLL3 cells, 0.00128 nM antibody
[8] = biological target: DLL3 endogenously expressed on NCI-H82 cells (UniProt Q9NYJ7); assay: FACS on NCI-H82 cells; antibody 0.032 nM
[9] = biological target: DLL3 endogenously expressed on NCI-H82 cells (UniProt Q9NYJ7); assay: FACS on NCI-H82 cells; antibody 100 nM
[10] = biological target: human DLL3 protein expressed on CHO-K1 recombinant cells (human DLL3 extracellular segment fused to EpCAM transmembrane and intracellular regions) (human) (UniProt Q9NYJ7); assay: FACS, CHO-K1 hDLL3 cells, 100 nM antibody
Chain of human DLL3 protein expressed on CHO-K1 recombinant cells (human DLL3 extracellular segment fused to EpCAM transmembrane and intracellular regions) (human) (Q9NYJ7 other isoform, or with tags, fused parts or gaps limits assumed): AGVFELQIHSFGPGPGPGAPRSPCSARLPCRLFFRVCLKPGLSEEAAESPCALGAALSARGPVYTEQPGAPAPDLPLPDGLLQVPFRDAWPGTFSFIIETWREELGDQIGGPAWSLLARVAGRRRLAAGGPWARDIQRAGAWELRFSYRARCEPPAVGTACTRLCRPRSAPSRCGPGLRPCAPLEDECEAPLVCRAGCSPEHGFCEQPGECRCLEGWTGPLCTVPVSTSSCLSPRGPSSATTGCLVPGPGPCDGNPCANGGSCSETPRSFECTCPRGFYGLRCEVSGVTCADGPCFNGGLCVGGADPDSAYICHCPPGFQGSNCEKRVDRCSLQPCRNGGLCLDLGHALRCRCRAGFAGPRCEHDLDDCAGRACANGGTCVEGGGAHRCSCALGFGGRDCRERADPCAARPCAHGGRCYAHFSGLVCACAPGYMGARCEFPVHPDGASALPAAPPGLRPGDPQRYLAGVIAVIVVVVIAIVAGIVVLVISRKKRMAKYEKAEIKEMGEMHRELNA

[11] = biological target: human DLL3 protein expressed on CHO-K1 recombinant cells (human DLL3 extracellular segment fused to EpCAM transmembrane and intracellular regions) (human) (UniProt Q9NYJ7); assay: FACS, CHO-K1 hDLL3 cells, 4 nM antibody
[12] = biological target: human DLL3 protein expressed on CHO-K1 recombinant cells (human DLL3 extracellular segment fused to EpCAM transmembrane and intracellular regions) (human) (UniProt Q9NYJ7); assay: FACS, CHO-K1 hDLL3 cells, 0.00128 nM antibody
[13] = biological target: mouse DLL3 on CHO-K1-mDLL3 cells (mouse) (UniProt O88516); assay: FACS, CHO-K1-mDLL3 cells, 4 nM antibody
[14] = biological target: monkey DLL3 on CHO-K1-cyno DLL3 cells (cynomolgus monkey); assay: FACS, CHO-K1-cyno DLL3 cells, 100 nM antibody
[15] = biological target: DLL3 endogenously expressed on NCI-H82 cells (UniProt Q9NYJ7); assay: FACS on NCI-H82 cells; antibody 20 nM
[16] = biological target: human DLL3 protein expressed on CHO-K1 recombinant cells (human DLL3 extracellular segment fused to EpCAM transmembrane and intracellular regions) (human) (UniProt Q9NYJ7); assay: FACS, CHO-K1 hDLL3 cells, 0.032 nM antibody
[17] = biological target: human DLL3 protein (extracellular segment, His tag) (human) (UniProt Q9NYJ7); assay: SPR (Biacore 8K), antibody captured on Protein A chip, DLL3 antigen in solution, 1:1 Langmuir fit
Chain of human DLL3 protein (extracellular segment, His tag) (human) (Q9NYJ7 27-492): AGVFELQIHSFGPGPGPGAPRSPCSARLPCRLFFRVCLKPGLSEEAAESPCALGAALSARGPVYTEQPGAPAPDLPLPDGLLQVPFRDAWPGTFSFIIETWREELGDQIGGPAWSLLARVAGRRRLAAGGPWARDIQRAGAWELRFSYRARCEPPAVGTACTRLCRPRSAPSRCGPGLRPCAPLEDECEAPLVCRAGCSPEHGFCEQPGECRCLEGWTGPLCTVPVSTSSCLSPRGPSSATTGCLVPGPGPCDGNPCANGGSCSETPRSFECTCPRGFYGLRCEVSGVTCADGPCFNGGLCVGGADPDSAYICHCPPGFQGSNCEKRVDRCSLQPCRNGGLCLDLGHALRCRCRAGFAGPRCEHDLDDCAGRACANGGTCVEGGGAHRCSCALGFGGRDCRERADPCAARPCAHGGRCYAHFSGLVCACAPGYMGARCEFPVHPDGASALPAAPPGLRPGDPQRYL

[18] = biological target: mouse DLL3 on CHO-K1-mDLL3 cells (mouse) (UniProt O88516); assay: FACS, CHO-K1-mDLL3 cells, 0.8 nM antibody
[19] = biological target: mouse DLL3 on CHO-K1-mDLL3 cells (mouse) (UniProt O88516); assay: FACS, CHO-K1-mDLL3 cells, 20 nM antibody
[20] = biological target: human DLL1 protein (Acro, Cat. No. DL1-H52H8) (human) (UniProt O00548); assay: ELISA, coated hDLL1; maximum over 0.1, 1, 10, 100 nM antibody
Chain of human DLL1 protein (Acro, Cat. No. DL1-H52H8) (human) (O00548 18-540 limits assumed): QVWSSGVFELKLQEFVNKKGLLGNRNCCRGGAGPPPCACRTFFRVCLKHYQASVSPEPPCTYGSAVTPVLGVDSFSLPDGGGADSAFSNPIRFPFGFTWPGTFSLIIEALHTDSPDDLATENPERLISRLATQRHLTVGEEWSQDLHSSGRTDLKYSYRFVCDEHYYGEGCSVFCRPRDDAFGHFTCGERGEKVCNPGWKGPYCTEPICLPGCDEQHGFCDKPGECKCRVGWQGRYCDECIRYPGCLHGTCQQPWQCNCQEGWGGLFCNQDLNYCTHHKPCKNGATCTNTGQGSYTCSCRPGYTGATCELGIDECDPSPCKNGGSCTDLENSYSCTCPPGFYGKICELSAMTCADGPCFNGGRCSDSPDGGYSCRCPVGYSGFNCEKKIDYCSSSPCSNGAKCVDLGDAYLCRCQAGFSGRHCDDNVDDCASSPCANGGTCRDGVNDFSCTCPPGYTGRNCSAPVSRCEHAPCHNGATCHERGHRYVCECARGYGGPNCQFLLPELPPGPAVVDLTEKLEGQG

[21] = biological target: human DLL3 protein expressed on CHO-K1 recombinant cells (human DLL3 extracellular segment fused to EpCAM transmembrane and intracellular regions) (human) (UniProt Q9NYJ7); assay: FACS, CHO-K1 hDLL3 cells, 0.8 nM antibody
[22] = biological target: DLL3 endogenously expressed on NCI-H82 cells (UniProt Q9NYJ7); assay: FACS on NCI-H82 cells; antibody 0.0064 nM
[23] = biological target: DLL3 endogenously expressed on NCI-H82 cells (UniProt Q9NYJ7); assay: FACS on NCI-H82 cells; antibody 4 nM
[24] = biological target: mouse DLL3 on CHO-K1-mDLL3 cells (mouse) (UniProt O88516); assay: FACS, CHO-K1-mDLL3 cells, 0.032 nM antibody
[25] = biological target: DLL3 endogenously expressed on NCI-H82 cells (UniProt Q9NYJ7); assay: FACS on NCI-H82 cells; antibody 0.16 nM
[26] = biological target: monkey DLL3 on CHO-K1-cyno DLL3 cells (cynomolgus monkey); assay: FACS, CHO-K1-cyno DLL3 cells, 20 nM antibody
[27] = biological target: mouse DLL3 on CHO-K1-mDLL3 cells (mouse) (UniProt O88516); assay: FACS, CHO-K1-mDLL3 cells, 0.16 nM antibody
[28] = biological target: monkey DLL3 on CHO-K1-cyno DLL3 cells (cynomolgus monkey); assay: FACS, CHO-K1-cyno DLL3 cells, 0.8 nM antibody
[29] = biological target: mouse DLL3 on CHO-K1-mDLL3 cells (mouse) (UniProt O88516); assay: FACS, CHO-K1-mDLL3 cells, 100 nM antibody
[30] = biological target: monkey DLL3 on CHO-K1-cyno DLL3 cells (cynomolgus monkey); assay: FACS, CHO-K1-cyno DLL3 cells, 0.032 nM antibody
[31] = biological target: monkey DLL3 on CHO-K1-cyno DLL3 cells (cynomolgus monkey); assay: FACS, CHO-K1-cyno DLL3 cells, 0.0064 nM antibody
[32] = biological target: human DLL3 protein expressed on CHO-K1 recombinant cells (human DLL3 extracellular segment fused to EpCAM transmembrane and intracellular regions) (human) (UniProt Q9NYJ7); assay: FACS, CHO-K1 hDLL3 cells, 20 nM antibody
[33] = biological target: human DLL3 protein expressed on CHO-K1 recombinant cells (human DLL3 extracellular segment fused to EpCAM transmembrane and intracellular regions) (human) (UniProt Q9NYJ7); assay: FACS, CHO-K1 hDLL3 cells, 0.16 nM antibody
[34] = biological target: DLL3 endogenously expressed on NCI-H82 cells (UniProt Q9NYJ7); assay: FACS on NCI-H82 cells; antibody 0.00128 nM
[35] = biological target: human DLL4 protein (Acro, Cat. No. DL4-H5227) (human) (UniProt Q9NR61); assay: ELISA, coated hDLL4; maximum over 0.1, 1, 10, 100 nM antibody
Chain of human DLL4 protein (Acro, Cat. No. DL4-H5227) (human) (Q9NR61 27-524 limits assumed): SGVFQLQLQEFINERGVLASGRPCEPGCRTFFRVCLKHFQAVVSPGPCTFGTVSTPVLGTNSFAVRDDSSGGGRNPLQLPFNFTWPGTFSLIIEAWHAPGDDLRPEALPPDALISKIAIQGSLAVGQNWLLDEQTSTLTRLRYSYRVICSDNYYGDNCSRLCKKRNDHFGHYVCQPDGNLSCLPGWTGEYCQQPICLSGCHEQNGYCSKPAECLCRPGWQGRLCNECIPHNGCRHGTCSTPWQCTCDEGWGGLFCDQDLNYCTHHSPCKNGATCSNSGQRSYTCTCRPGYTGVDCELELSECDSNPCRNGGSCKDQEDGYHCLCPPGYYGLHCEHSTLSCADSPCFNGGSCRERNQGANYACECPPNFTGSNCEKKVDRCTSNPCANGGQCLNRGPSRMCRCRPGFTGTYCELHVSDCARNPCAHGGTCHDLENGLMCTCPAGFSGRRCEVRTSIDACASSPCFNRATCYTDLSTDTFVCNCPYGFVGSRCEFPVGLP

[36] = biological target: human DLL3 protein expressed on CHO-K1 recombinant cells (human DLL3 extracellular segment fused to EpCAM transmembrane and intracellular regions) (human) (UniProt Q9NYJ7); assay: FACS, CHO-K1 hDLL3 cells, 0.0064 nM antibody

Chain of monkey DLL3 on CHO-K1-cyno DLL3 cells (cynomolgus monkey) (chain, as listed by the source limits assumed): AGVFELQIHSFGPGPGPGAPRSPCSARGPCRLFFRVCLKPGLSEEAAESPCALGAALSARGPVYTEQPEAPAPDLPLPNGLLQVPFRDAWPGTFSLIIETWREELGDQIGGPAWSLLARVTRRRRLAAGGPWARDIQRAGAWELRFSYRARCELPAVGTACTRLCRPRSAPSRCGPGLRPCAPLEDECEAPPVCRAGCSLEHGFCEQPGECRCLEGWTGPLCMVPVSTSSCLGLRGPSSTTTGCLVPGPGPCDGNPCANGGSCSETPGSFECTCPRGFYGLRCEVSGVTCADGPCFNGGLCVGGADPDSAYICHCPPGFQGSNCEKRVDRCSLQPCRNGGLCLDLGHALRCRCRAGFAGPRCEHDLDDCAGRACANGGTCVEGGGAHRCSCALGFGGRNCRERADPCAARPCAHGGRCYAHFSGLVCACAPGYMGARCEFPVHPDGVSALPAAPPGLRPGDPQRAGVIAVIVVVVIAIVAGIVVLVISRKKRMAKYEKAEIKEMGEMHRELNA

MFI [1]: 6270 MFI | MFI [2]: 117 MFI | MFI [3]: 1200 MFI | MFI [4]: 123 MFI | MFI at 0.00128 nM [5]: 97 MFI | MFI at 0.0064 nM [5]: 113 MFI | MFI at 0.032 nM [5]: 169 MFI | MFI at 0.16 nM [5]: 371 MFI | MFI at 0.8 nM [5]: 720 MFI | MFI at 4 nM [5]: 829 MFI | MFI at 20 nM [5]: 962 MFI | MFI at 100 nM [5]: 1190 MFI | MFI [6]: 914 | MFI [7]: 114 MFI | MFI [8]: 218 | MFI [9]: 1410 | MFI [10]: 11800 MFI | MFI [11]: 10300 MFI | MFI [12]: 120 MFI | MFI [13]: 1120 MFI | MFI [14]: 7520 MFI | MFI [15]: 1130 | MFI [16]: 302 MFI | Kd [17]: 0.0194 nM | koff [17]: 3.49e-05 s⁻¹ | kon [17]: 1.8e+06 M⁻¹ s⁻¹ | MFI [18]: 813 MFI | MFI [19]: 1340 MFI | Emax of OD450 nm binding value [20]: 0.39 OD450 nm | MFI [21]: 4640 MFI | MFI [22]: 131 | MFI [23]: 1020 | MFI [24]: 172 MFI | MFI [25]: 461 | MFI [26]: 6820 MFI | MFI [27]: 350 MFI | MFI [28]: 4290 MFI | MFI [29]: 1490 MFI | MFI [30]: 389 MFI | MFI [31]: 163 MFI | MFI [32]: 11300 MFI | MFI [33]: 937 MFI | MFI [34]: 114 | Emax of OD450 nm binding value [35]: 0.67 OD450 nm | MFI [36]: 152 MFI
B1: Hab015VL4VH1b-hFc (scFv, part only; not given: VL-VH linker and human IgG1 Fc, V domains shown, not shown: another chain or arm of the molecule; a dimerising Fc or GST; small tags and cut ends)
VL: NIVLTQSPATLSLSPGERATLSCKASENVGTYVSWFQQKPGQSPRLLIYGASNRYTGIPARFSGSGSGTDFTLTISSLEPEDFAVYYCGQFYSFPSTFGGGTKVEIK
VH: EVQLVESGGGLVKPGGSLRLSCAASGITFSNFWMNWVRQAPGKGLEWVGQIRLKSEDYATHYAESVKGRFTISREDSKNTVYLQMNSLKTEDTAVYYCTTGYYFDYWGQGTTVTVSS

From patent EP4786492A1
